According to PMC8691596:
Positions count from the first letter of the chain named. Names and notes keep the numbering of the source. Like-named read-outs stand apart in the source and are kept apart here.

Legend:
[1] = target: anti-CD20 IgG1 L234S/L235T/G236R (human); experiment: SPR; antibody captured by biotin-labelled anti-human κ light chain on streptavidin CM5; soluble Fcγ receptor injected at one concentration ([…] to 18 μM); HBS-EP+ pH 7.4, 25°C; Biacore 8K
[2] = target: anti-CD20 IgG1 L234S/L235T/G236R (human); experiment: as above; remark: listed apart in the source
[3] = target: human FcγRIIIa (CD16a) F158 allele, histidine-tagged recombinant (human) (UniProt P08637); experiment: SPR; His-tagged Fc receptor captured by anti-histidine antibody immobilised on CM5; antibody injected at 100 μg/mL for 1 min; response about 5 s before end of injection, blank subtracted; 25°C, HBS-EP+; Biacore T200
[4] = target: human FcγRIIIa (CD16a) V158 allele, histidine-tagged recombinant (human) (UniProt P08637); experiment: as above
[5] = target: rat FcγRI (CD64), histidine-tagged recombinant (rat); experiment: as above
[6] = remark: other sources report otherwise

B1: mouse FcγRI extracellular domain, C-terminal hexa-His (independently-made panel) (receptor)
chain: EVVNATKAVITLQPPWVSIFQKENVTLWCEGPHLPGDSSTQWFINGTAVQISTPSYSIPEASFQDSGEYRCQIGSSMPSDPVQLQIHNDWLLLQASRRVLTEGEPLALRCHGWKNKLVYNVVFYRNGKSFQFSSDSEVAILKTNLSHSGIYHCSGTGRHRYTSAGVSITVKELFTTPVLRASVSSPFPEGSLVTLNCETNLLLQRPGLQLHFSFYVGSKILEYRNTSSEYHIARAEREDAGFYWCEVATEDSSVLKRSPELELQVLGPQSSAP
[1]
  response: < 1 RU

B2: cynomolgus monkey FcγRIII extracellular domain, C-terminal hexa-His (receptor)
chain: GMRAEDLPKAVVFLEPQWYRVLEKDRVTLKCQGAYSPEDNSTRWFHNESLISSQTSSYFIAAARVNNSGEYRCQTSLSTLSDPVQLEVHIGWLLLQAPRWVFKEEESIHLRCHSWKNTLLHKVTYLQNGKGRKYFHQNSDFYIPKATLKDSGSYFCRGLIGSKNVSSETVNITITQDLAVSSISSFFPPGYQ
[2]; [6]
  response: < 1 RU

B3: human FcγRIIa H131 extracellular domain, C-terminal hexa-His (independently-made panel), P12318 34-217 (receptor)
chain: QAAAPPKAVLKLEPPWINVLQEDSVTLTCQGARSPESDSIQWFHNGNLIPTHTQPSYRFKANNNDSGEYTCQTGQTSLSDPVHLTVLSEWLVLQTPHLEFQEGETIMLRCHSWKDKPLVKVTFFQNGKSQKFSHLDPTFSIPQANHSHSGDYHCTGNIGYTLFSSKPVTITVQVPSMGSSSPMG
[2]; [6]
  response: < 1 RU

B4: human FcγRIIa R131 extracellular domain, C-terminal hexa-His (independently-made panel), P12318 34-217 (receptor)
chain: B3 chain with H134R
modifications: not checked
[2]
  response: < 1 RU

B5: anti-CD52 IgG1 L234A/L235A (LALA) (antibody, V domains shown)
VH: QVQLQESGPGLVRPSQTLSLTCTVSGFTFTDFYMNWVRQPPGRGLEWIGFIRDKAKGYTTEYNPSVKGRVTMLVDTSKNQFSLRLSSVTAADTAVYYCAREGHTAAPFDYWGQGSLVTVSS
VL: DIQMTQSPSSLSASVGDRVTITCKASQNIDKYLNWYQQKPGKAPKLLIYNTNNLQTGVPSRFSGSGSGTDFTFTISSLQPEDIATYYCLQHISRPRTFGQGTKLEIK
[3]
  mean response: 17 RU
[4]
  mean response: 63.2 RU

B6: anti-CD52 IgG1 N297Q (aglycosyl) (antibody, V domains shown)
VH: B5 VH
VL: B5 VL
[5]
  mean response: 488 RU

B7: mouse FcγRIIb extracellular domain, C-terminal hexa-His (receptor)
chain: THDLPKAVVKLEPPWIQVLKEDTVTLTCEGTHNPGNSSTQWFHNGRSIRSQVQASYTFKATVNDSGEYRCQMEQTRLSDPVDLGVISDWLLLQTPQLVFLEGETITLRCHSWRNKLLNRISFFHNEKSVRYHHYSSNFSIPKANHSHSGDYYCKGSLGRTLHQSKPVTITVQGPKSSRSLP
[1]
  response: < 1 RU

B8: mouse FcγRIII extracellular domain, C-terminal hexa-His (receptor)
chain: ALPKAVVKLDPPWIQVLKEDMVTLMCEGTHNPGNSSTQWFHNGRSIRSQVQASYTFKATVNDSGEYRCQMEQTRLSDPVDLGVISDWLLLQTPQRVFLEGETITLRCHSWRNKLLNRISFFHNEKSVRYHHYKSNFSIPKANHSHSGDYYCKGSLGSTQHQSKPVTITVQDPATTSSISLVWYHT
[1]
  response: < 1 RU
